Measured values from patent US20190031733A1.

Target: Pmel-TCR (mouse)
Test: flow cytometry, APC-tetramer staining of FACS-sorted 293TREx-CD3-Pmel-TCR cells

Sequence of Pmel-TCR (mouse) (TCR alpha, as listed by the source, form in doubt, chain 1 of 2): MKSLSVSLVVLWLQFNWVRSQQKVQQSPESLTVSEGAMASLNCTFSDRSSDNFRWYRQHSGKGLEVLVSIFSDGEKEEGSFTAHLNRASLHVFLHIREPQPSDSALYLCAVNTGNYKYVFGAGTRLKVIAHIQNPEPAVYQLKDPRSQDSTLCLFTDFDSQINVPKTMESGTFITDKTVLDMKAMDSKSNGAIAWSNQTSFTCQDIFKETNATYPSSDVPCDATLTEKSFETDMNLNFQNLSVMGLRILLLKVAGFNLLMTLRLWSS
Sequence of Pmel-TCR (mouse) (TCR beta, as listed by the source, form in doubt, chain 2 of 2): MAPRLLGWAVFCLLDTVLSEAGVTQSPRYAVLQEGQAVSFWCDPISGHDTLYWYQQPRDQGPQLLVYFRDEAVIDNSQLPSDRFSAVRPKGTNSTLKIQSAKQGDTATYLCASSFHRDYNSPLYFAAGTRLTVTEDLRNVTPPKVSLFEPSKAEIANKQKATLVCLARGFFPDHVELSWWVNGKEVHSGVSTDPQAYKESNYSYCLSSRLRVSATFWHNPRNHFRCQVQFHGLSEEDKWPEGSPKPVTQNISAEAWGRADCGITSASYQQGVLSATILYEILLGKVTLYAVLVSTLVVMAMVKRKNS

percent of cells stained with the tetramers: 81.5%
Substance: APC-streptavidin tetramer of H-2D^b mouse MHC class I molecules loaded with the human gp100 peptide … (from UniProt P01899 25-362) (peptide-MHC)
